Here are results for one substance from patent US8278109.

Assay [1] addresses JEG-3 derived purified hCG-H (human) (UniProt P01215). As to the kind of experiment: SPR (Biacore); 7 injections of B152 at 20-100 micrograms/ml over JEG-3 hCG-H; lower end. For orientation: Surface plasmon resonance follows binding to a sensor surface in real time, without labels.
Assay [2] shares this target. Description: SPR (Biacore); B152 concentration (100 micrograms/ml) giving 223 RU on hCG-H compared with SMA 3E8 and SMA 4D8.
For assay [3] the target is unchanged. As to the kind of experiment: SPR (Biacore); 7 injections of B152 at 20-100 micrograms/ml over JEG-3 hCG-H; at 100 micrograms/ml.

Sequence of UniProt P01215 (P01215 25-116, chain 1 of 2, other chains not shown): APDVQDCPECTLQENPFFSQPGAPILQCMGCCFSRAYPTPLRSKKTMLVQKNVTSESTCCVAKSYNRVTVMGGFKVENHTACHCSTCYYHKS

Turning to B152 (antibody), the figures for the response in assay [1] and in assay [3] were 60 RU and 223 RU, respectively. This substance also showed a fold antibody concentration needed for the response, against SMA 3E8 and SMA 4D8 in assay [2] of 50 to 100 fold.
